Patent publication US12723078 (University of Texas, dated 2026)

What was measured:
[1] = target: T1, LILRA1 (human, UniProt O75019); assay: Octet RED96, cross-reactivity table
T1 construct: not the cell-surface form of MOLECULES; also called LILRA1 protein of the ELISA and Octet specificity tests

[2] = target: T2, recombinant LILRB1 (human, UniProt Q8NHL6 24-461); assay: ELISA, coated recombinant LILRB1, antibody titration;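 also: serially diluted anti-LILRB1 antibodies incubated 60 min at 37 °C on plates coated with 50 ng/well recombinant protein, TMB colorimetric development read as absorbance at 450 nm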
T2 construct: LILRB1-Fc proteins were also made; also called LILRB1 recombinant proteins
Procedure: (§1) ELISA. LILRB1 recombinant proteins (50 ng/well, 100 μL per well) were coated on Corning 96-well ELISA plates at 37° C. for 4 hrs. Plates were blocked for 2 hrs at 37° C. with 5% non-fat milk. After washing with PBST, 100 μL of serial diluted anti-LILRB1 antibodies were added and incubated for 60 min at 37° C. […] Plates were washed again with PBST for another 5 times, then the immunoreactions were developed with TMB substrates (Sigma, Cat #T0440) and stopped by the addition of 2 M H_2SO_4 before the plate was read at 450 nm.

[3] = target: T3, recombinant human LILRB1 protein (human, UniProt Q8NHL6 24-461); assay: ELISA
T3 construct: ELISA and Octet methods say only 'recombinant LILRB1'; also called recombinant LILRB1; LILRB1 recombinant proteins
Procedure: as §1

[4] = target: T3, recombinant human LILRB1 protein; assay: Octet RED96, LILRB1 at 100, 33.3, 11.1 and 3.7 nM
Procedure: (§2) Following a short baseline in kinetics buffer for 20 s, the loaded biosensors were exposed to solutions of recombinant LILRB1 in a range of concentrations (0-500 nM). After background was subtracted, data was fit to a 1:1 binding model to extract an association rate ($kon$) and dissociation rate ($koff$). The KD was calculated using the ratio $koff/kon$. […] All experiments were performed with shaking at 1,000 rpm. All raw data was processed using ForteBio Octet Data Analysis Software 9.0.

[5] = target: T3, recombinant human LILRB1 protein; assay: ELISA; remark: listed apart in the source
Procedure: as §1

[6] = target: T2, recombinant LILRB1; assay: BLI (Octet RED96), antibody on biosensor, recombinant LILRB1 in solution;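 also: Background-subtracted sensorgrams fitted with a one-to-one binding model, KD taken as koff over kon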
Procedure: as §2

T2 sequence (Q8NHL6 24-461 limits assumed): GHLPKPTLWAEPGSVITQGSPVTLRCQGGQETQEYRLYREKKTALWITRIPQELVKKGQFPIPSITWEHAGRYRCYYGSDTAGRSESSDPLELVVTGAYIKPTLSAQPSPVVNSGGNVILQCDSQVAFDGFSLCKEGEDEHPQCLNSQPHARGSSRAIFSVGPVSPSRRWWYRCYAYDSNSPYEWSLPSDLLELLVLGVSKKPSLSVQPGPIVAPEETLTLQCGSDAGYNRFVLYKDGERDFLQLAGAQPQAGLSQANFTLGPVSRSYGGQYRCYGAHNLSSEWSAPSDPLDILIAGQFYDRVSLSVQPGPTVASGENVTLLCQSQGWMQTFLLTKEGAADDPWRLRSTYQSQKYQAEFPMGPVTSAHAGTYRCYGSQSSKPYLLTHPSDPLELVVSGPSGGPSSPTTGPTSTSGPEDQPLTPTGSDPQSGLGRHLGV
T3 sequence (Q8NHL6 24-461 limits assumed): as above
T1 sequence (O75019 17-461 limits assumed): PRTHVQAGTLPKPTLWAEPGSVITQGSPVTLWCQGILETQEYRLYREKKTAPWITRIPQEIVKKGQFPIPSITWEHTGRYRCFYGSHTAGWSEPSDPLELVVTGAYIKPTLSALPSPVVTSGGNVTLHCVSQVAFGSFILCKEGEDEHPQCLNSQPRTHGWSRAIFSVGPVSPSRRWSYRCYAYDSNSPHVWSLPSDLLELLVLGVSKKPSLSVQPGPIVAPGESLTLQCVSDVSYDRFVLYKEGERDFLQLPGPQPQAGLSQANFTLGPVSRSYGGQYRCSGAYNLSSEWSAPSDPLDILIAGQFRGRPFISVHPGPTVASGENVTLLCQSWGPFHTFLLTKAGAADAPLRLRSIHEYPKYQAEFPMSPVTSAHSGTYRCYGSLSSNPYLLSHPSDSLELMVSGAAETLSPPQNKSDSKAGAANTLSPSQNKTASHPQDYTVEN

B1: B1-#204 (antibody, V domains shown)
VH: QSVKESGGGLVKPGGTLTLTCTASGFSFSSSYCMCWVRQAPGKGLELIACIYTDSSGATYYASWAKGRFTISKSSSTTITLQMTSLTAADTATYFCARGWDYEDPGYTDTTYFSLWGPGTLVTVSS
VL: ELDMTQTPSSVEAAVGGTVTIKCQASQTIYTNLAWYQQKPGQPPNLLIYAASTLASGVSSRFKGSGSGTEFTLTISDLECADAATYYCQSYYGSSTTGNGFGGGTEVEIN
notes: recombinant rabbit IgG
binding result [1]: no binding (tested: not given)
EC50 [2]: 0.00737 µg/mL

B2: humanized B1-176 with heavy chain Hu-176 VH-1 and light chain Hu-176 VL (antibody, V domains shown)
VH: EVQLVESGGGLVQPGGSLRLSCAASGFSFSSSYCMCWVRQAPGKGLEWVSCIYTDSSGATYYASWAKGRFTISRHNSKNTLYLQMNSLRAEDTAVYYCARGWDYEDPGYTDTTYFSLWGRGTLVTVSS
VL: DIQLTQSPSFLSASVGDRVTITCQASQTIYTNLAWYQQKPGKAPKLLIYAASTLASGVPSRFSGSGSGTEFTLTISSLQPEDFATYYCQSYYGSSTTGNGFGGGTKVEIK
binding result [3]: binds

B3: B1-176-N297A (antibody, V domains shown)
VH: QSLEESEGGLVKPGGTLTLTCTASGFSFSSSYCMCWVRQAPGKGLELIACIYTDSSGATYYASWAKGRFTISKSSSTTITLQMTSLTAADTATYFCARGWDYEDPGYTDTTYFSLWGPGTLVTVSS
VL: ELDLTQTPSSVEAAVGGTVTIKCQASQTIYTNLAWYQQKPGQPPNLLIYAASTLASGVSSRFKGSGSGTEFTLTISDLECADAATYYCQSYYGSSTTGNGFGGGTEVEIK
Kd [4]: 0.17 nM

B4: Hu B1-176-N297A (antibody, V domains shown)
VH: EVQLVESGGGLVQPGGSLRLSCAASGFSFSSSYCMCWVRQAPGKGLELVSCIYTDSSGATYYASWAKGRFTISRHNSKNTLYLQMNSLRAEDTAVYYCARGWDYEDPGYTDTTYFSLWGRGTLVTVSS
VL: DIQLTQSPSFLSASVGDRVTITCQASQTIYTNLAWYQQKPGKAPKLLIYAASTLASGVPSRFSGSGSGTEFTLTISSLQPEDFATYYCQSYYGSSTTGNGFGGGTKVEIK
notes: Human IgG1 with N297A
Kd [4]: 0.351 nM

B5: Hu B1-176-LALAPG (antibody, V domains shown)
VH: EVQLVESGGGLVQPGGSLRLSCAASGFSFSSSYCMCWVRQAPGKGLELVSCIYTDSSGATYYASWAKGRFTISRHNSKNTLYLQMNSLRAEDTAVYYCARGWDYEDPGYTDTTYFSLWGRGTLVTVSS
VL: DIQLTQSPSFLSASVGDRVTITCQASQTIYTNLAWYQQKPGKAPKLLIYAASTLASGVPSRFSGSGSGTEFTLTISSLQPEDFATYYCQSYYGSSTTGNGFGGGTKVEIK
notes: Human IgG1 with L234A, L235A and P329G
EC50 (read off the curve) [5]: ~0.04 µg/mL

B6: B1-#3 (antibody, V domains shown)
VH: QSLEESEGDLVKPEGSLTLTCKASGFDFSSDAMCWVRQAPGKGLEWIGCIYNGDEITDHASWAKGRFTISKTSPTTVTLQMTSLTVADTATYFCARAVYSDGGAGYPYMYGMDLWGPGTLVTVSS
VL: ELDMTQTPASVEAAVGGTVTIKCQASQNIYSYLVWYQQKPGQPPKLLISKASTLASGVSSRFKGSGSGTEFTLTINDLECADAATYYCQTNYFSSTSHFGVFTFGGGTELEIK
notes: IgG; also called antagonistic B1-3
binding result [1]: binds

B7: B1-#5 (antibody, V domains shown)
VH: EQSLEESGGDLVKPEGSLTLTCTASELSFSSAYYMCWVRQAPGKGLEWIGCIYSGDGDTYYANWAKGRFTISKTSSTTVTLQMTSLTDADTATYFCARALDSHYSSFDLWGPGTLVTISS
VL: ELDMTQTPSSVSAAVGDTVTIKCQASQSIYRYLAWYQQKPGQRPSLLIYYGSDLASGVPSRFSGSGSGTEFTLTISDLECADAASYYCQTTYDDYHNGWAFGGGTNVEIN
notes: recombinant rabbit IgG
binding result [1]: binds
EC50 [2]: 0.00602 µg/mL

B8: B1-#190 (antibody, V domains shown)
VH: QEQLKESGGDLVKPEGSLTLTCTASGFSFSSDYWVCWVRQAPGKGPEWIGCIYTGDDDTYYASWAKGRFTISKTSSTTVTLEVTSLTAADTATYFCARGLTIGTAELYFWGPGTVVTVSS
VL: ELVLTQTPSPVSAAVGGTVTINCQASQSISNELSWYQQKPGQPPKLLIYLASTLDSGVPSRFKGSGSGTQFTLTISDLECADAATYYCQSHYYGGSSDYGWAFGGGTEVVVK
notes: recombinant rabbit IgG
binding result [1]: binds
EC50 [2]: 0.00678 µg/mL

B9: B1-#72-1 (antibody, V domains shown)
VH: QSVKESGGGLVQPEGSLALTCKASGIDLSNYWYMCWVRQAPGKGLEWIGCVATDSSRTHYATWAKGRFTVSKTSSTTVTLQMTSLTAADTATYFCARGSGASTNGVWWVMGDGMDLWGPGTLVTISS
VL: ELVMTQTPSSVSAAVGGTVTIKCQASPSISTYLSWYQQKPGQPPKRLINRASTLASGVPPRFKGSGAGTQFTLTISDLECADAATYYCQNNYHSGSSNGGGVAFGGGTEVEIK
notes: recombinant rabbit IgG
Kd [6]: 3.14 nM
koff [6]: 0.000237 s⁻¹
kon [6]: 75700 M⁻¹ s⁻¹
EC50 [2]: 0.011 µg/mL

B10: B1-#74 (antibody, V domains shown)
VH: QSLEESGGGLVKPGASLTLTCTASGFSLNRYYMCWVRQAPGKGLEWIGCIYSGSGSTYYASWAKGRFTISKTSSTTVTLQMTSLPAADTATYFCGRLDYRVIYAFNLWGPGTLVTISS
VL: ELVLTQTPASVSAAVGGTVTINCQASQSIGSGNLAWYQQKPGQPPKLLIYLASTLASGVPPRFKGSGSGTEFTLTISDLECDDAATYYCQYTYYGTTYDNAFGGGTELEIK
notes: recombinant rabbit IgG
Kd [6]: 16.1 nM
koff [6]: 0.00145 s⁻¹
kon [6]: 89900 M⁻¹ s⁻¹
EC50 [2]: 0.13 µg/mL

B11: B1-#22 (antibody, V domains shown)
VH: EQSLEESGGGLVKPGASLTLTCKASGFDFSSNDYMCWVRQAPGKGLEWIGCIYGGDGHTYYATWAKGRFTISKASSTTVTLQMTSLTAADTASYFCARGYSYGDTGYADAILTLDLWGPGTLVTVSS
VL: ELDLTQTPASVEAAVGGTVTIKCQASQTIGSYLSWYQQKPGQRPKLLIYEASKLASGVPSWFKGSGSGTEFTLTISDLECADAATYYCQSNYYRAGGNYGGAFGGGTEVEIK
notes: recombinant rabbit IgG
Kd [6]: 0.611 nM
koff [6]: 8.62e-05 s⁻¹
kon [6]: 141000 M⁻¹ s⁻¹
EC50 [2]: 0.0292 µg/mL

B12: B1-#93 (antibody, V domains shown)
VH: EQSVEESGGDLVKPGTSLTLTCTASGFSFSGNTICWVRQAPGKRPEWIACIYPSSTSITTYATWAKGRFTVSKTSSTTVTLQMTSLTAADTATYFCARRYAAFLTYGSGAFDPWGPGTLVTISS
VL: ELDLTQTPASVSAAVGGTVTINCQASESIGSALAWYQQKPGQPPKLLIYSASALASGVPSRFKGSGSGTEYTLTISDLECADAATYYCQSYYGSGTTALDTFGGGTEVEIK
notes: recombinant rabbit IgG
Kd [6]: 8.54 nM
koff [6]: 0.000338 s⁻¹
kon [6]: 39600 M⁻¹ s⁻¹
EC50 [2]: 0.482 µg/mL

B13: B1-#27 (antibody, V domains shown)
VH: EQSVKESGGGLVQPEGSLTLTCTVSGFSFSGSYWICWVRQAPGKGLEWIACIYGDSIATYYPNWAKGRFTISKTSSTTVTLQMASLTGADTATYFCARDRNGGSGAYGWDLWGPGTLVTISS
VL: ELDLTQTPASVSEPVGGTVTITCQASQSISSYLSWYQQTPGQPPKLLIYKASTLASGVPSRFKGSGSGTEFTLTISDLECADAATYYCQSYYYISATVDNTFGGGTEVEIK
notes: recombinant rabbit IgG
Kd [6]: 1.27 nM
koff [6]: 0.000161 s⁻¹
kon [6]: 127000 M⁻¹ s⁻¹
EC50 [2]: 0.00794 µg/mL

B14: B1-#198 (antibody, V domains shown)
VH: QSLEESGGGLVKPEGSLTLTCTASGFDLSNNYYICWVRQAPGKGLELIACVDSDLTDSADYASWAKGRFTISKTSSTTVTLQMTSLTAADTATYFCAGSGSGYYYYYGMDLWGPGTLVTISS
VL: ELDMTQTPASVSEPVGGTVTIKCQASQSIGSYLAWYQQKPGQPPKLLAFYASTLKSGVPPRFKGSGSGTEFTLTISDLECADAATYYCQSNRLSSSDVNAFGGGTEVEIK
notes: recombinant rabbit IgG
Kd [6]: 0.0272 nM
koff [6]: 5.92e-06 s⁻¹
kon [6]: 218000 M⁻¹ s⁻¹
EC50 [2]: 0.00942 µg/mL

B15: B1-#209 (antibody, V domains shown)
VH: SQSVEESGGDLVKPGGTLTLTCTASRIDLNNYYYISWVRQAPGKGLEWIGVVATDSSVTWYASWAKGQFTISKTSSTTVTLQMTSLTAADTATYFCARGSGAATNGVWWVMGDGMDLWGPGTLVTVSS
VL: ELVMTQTPASVSEPVGGTVTIKCQASQSISSYLSWYQQKPGQPPKRLIYKASTLASGVPSRFKGSGSGTEFTLTISGVQCADAATYYCQNNYHSGSSNGGGFAFGGGTEVEIK
notes: recombinant rabbit IgG
Kd [6]: 3.03 nM
koff [6]: 0.000209 s⁻¹
kon [6]: 68900 M⁻¹ s⁻¹
EC50 [2]: 0.011 µg/mL

B16: B1-#178-2 (antibody, V domains shown)
VH: QKQLVESGGGLVQPEGSLALTCTASGFSFSSSYWICWVRQAPGKGLEWIACIYAGSSGSTYYASWVNGRFTVFKTSSTTVTLQMTSLTAADTATYFCARGGTSYRLDLWGPGTLVTVSS
VL: ELVLTQTPSSKSVAVGDTVTINCQASDNVYSNNYTSWFQQKPGQPPKQLLYYAAYRASGVPSRFKGSGSGTEFTLSISDVVCDDAATYYCSGHKDYSDDGSTFGGGTEVEIK
notes: recombinant rabbit IgG
Kd [6]: 1.59 nM
koff [6]: 0.000273 s⁻¹
kon [6]: 172000 M⁻¹ s⁻¹
EC50 [2]: 0.0143 µg/mL
